Target: T1, rSsp2 SM101 (Clostridium perfringens SM101 (type A), UniProt P21886 1-59)
T1 sequence: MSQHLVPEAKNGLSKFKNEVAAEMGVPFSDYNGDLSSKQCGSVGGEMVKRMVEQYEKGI
Assay: EMSA; glutaraldehyde-fixed; preferred probe
Conditions: protein: recombinant; tags: His6; label: 3'-biotin; blunt

B1: GC-rich probe (69.1% GC), Label-D2/Label-R2 (dsDNA)
DNA 1: CTGGCGACTCAGAAGGGGCTCGAACCCTCGACCTCCGGCGTGACAGGCCGGCACT
DNA 2: AGTGCCGGCCTGTCACGCCGGAGGTCGAGGGTTCGAGCCCCTTCTGAGTCGCCAG
  binding result: binds

— article PMC2706996
